# Data taken from IntAct's records for PubMed 9418861.
# B1: Serine/threonine-protein kinase MRCK alpha (Homo sapiens), Q5VT25 (parent)
# chain: MSGEVRLRQLEQFILDGPAQTNGQCFSVETLLDILICLYDECNNSPLRREKNILEYLEWAKPFTSKVKQMRLHREDFEILKVIGRGAFGEVAVVKLKNADKVFAMKILNKWEMLKRAETACFREERDVLVNGDNKWITTLHYAFQDDNNLYLVMDYYVGGDLLTLLSKFEDRLPEDMARFYLAEMVIAIDSVHQLHYVHRDIKPDNILMDMNGHIRLADFGSCLKLMEDGTVQSSVAVGTPDYISPEILQAMEDGKGRYGPECDWWSLGVCMYEMLYGETPFYAESLVETYGKIMNHKERFQFPAQVTDVSENAKDLIRRLICSREHRLGQNGIEDFKKHPFFSGIDWDNIRNCEAPYIPEVSSPTDTSNFDVDDDCLKNSETMPPPTHTAFSGHHLPFVGFTYTSSCVLSDRSCLRVTAGPTSLDLDVNVQRTLDNNLATEAYERRIKRLEQEKLELSRKLQESTQTVQALQYSTVDGPLTASKDLEIKNLKEEIEKLRKQVTESSHLEQQLEEANAVRQELDDAFRQIKAYEKQIKTLQQEREDLNKELVQASERLKNQSKELKDAHCQRKLAMQEFMEINERLTELHTQKQKLARHVRDKEEEVDLVMQKVESLRQELRRTERAKKELEVHTEALAAEASKDRKLREQSEHYSKQLENELEGLKQKQISYSPGVCSIEHQQEITKLKTDLEKKSIFYEEELSKREGIHANEIKNLKKELHDSEGQQLALNKEIMILKDKLEKTRRESQSEREEFESEFKQQYEREKVLLTEENKKLTSELDKLTTLYENLSIHNQQLEEEVKDLADKKESVAHWEAQITEIIQWVSDEKDARGYLQALASKMTEELEALRNSSLGTRATDMPWKMRRFAKLDMSARLELQSALDAEIRAKQAIQEELNKVKASNIITECKLKDSEKKNLELLSEIEQLIKDTEELRSEKGIEHQDSQHSFLAFLNTPTDALDQFERSPSCTPASKGRRTVDSTPLSVHTPTLRKKGCPGSTGFPPKRKTHQFFVKSFTTPTKCHQCTSLMVGLIRQGCSCEVCGFSCHITCVNKAPTTCPVPPEQTKGPLGIDPQKGIGTAYEGHVRIPKPAGVKKGWQRALAIVCDFKLFLYDIAEGKASQPSVVISQVIDMRDEEFSVSSVLASDVIHASRKDIPCIFRVTASQLSASNNKCSILMLADTENEKNKWVGVLSELHKILKKNKFRDRSVYVPKEAYDSTLPLIKTTQAAAIIDHERIALGNEEGLFVVHVTKDEIIRVGDNKKIHQIELIPNDQLVAVISGRNRHVRLFPMSALDGRETDFYKLSETKGCQTVTSGKVRHGALTCLCVAMKRQVLCYELFQSKTRHRKFKEIQVPYNVQWMAIFSEQLCVGFQSGFLRYPLNGEGNPYSMLHSNDHTLSFIAHQPMDAICAVEISSKEYLLCFNSIGIYTDCQGRRSRQQELMWPANPSSCCYNAPYLSVYSENAVDIFDVNSMEWIQTLPLKKVRPLNNEGSLNLLGLETIRLIYFKNKMAEGDELVVPETSDNSRKQMVRNINNKRRYSFRVPEEERMQQRREMLRDPEMRNKLISNPTNFNHIAHMGPGDGIQILKDLPMNPRPQESRTVFSGSVSIPSITKSRPEPGRSMSASSGLSARSSAQNGSALKREFSGGSYSAKRQPMPSPSEGSLSSGGMDQGSDAPARDFDGEDSDSPRHSTASNSSNLSSPPSPASPRKTKSLSLESTDRGSWDP
# Variants of: B1
# Conditions: with cdc42_human CDC42, P60953
# Sequence of cdc42_human CDC42, P60953 (P60953 whole entry, looked up): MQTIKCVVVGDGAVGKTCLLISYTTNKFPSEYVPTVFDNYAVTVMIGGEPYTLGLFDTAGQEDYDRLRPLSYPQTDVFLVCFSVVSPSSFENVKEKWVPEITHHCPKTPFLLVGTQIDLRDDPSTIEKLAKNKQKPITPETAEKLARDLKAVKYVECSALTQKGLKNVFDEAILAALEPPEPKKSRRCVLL
row,Variant,effect of a mutation on the interaction
1,H1579A,decreasing interaction
2,H1582A,decreasing interaction
